In article PMC7181641, “Aspartate aminotransferase Rv3722c governs aspartate-dependent nitrogen metabolism in Mycobacterium tuberculosis” (Nature Communications, 2020):

Biological target: the molecule itself
Assay: crystal structure; Rv3722c (~40 mg/mL) co-crystallised with 5 mM L-glutamic acid or 10 mM L-kynurenine, sitting drop vapor diffusion at 17 °C

B1: Rv3722c (aspartate aminotransferase of Mycobacterium tuberculosis) (enzyme)
chain: SFDSLSPQELAALHARHQQDYAALQGMKLALDLTRGKPSAEQLDLSNQLLSLPGDDYRDPEGTDTRNYGGQHGLPGLRAIFAELLGIAVPNLIAGNNSSLELMHDIVAFSMLYGGVDSPRPWIQEQDGIKFLCPVPGYDRHFAITETMGIEMIPIPMLQDGPDVDLIEELVAVDPAIKGMWTVPVFGNPSGVTYSWETVRRLVQMRTAAPDFRLFWDNAYAVHTLTLDFPRQVDVLGLAAKAGNPNRPYVFASTSKITFAGGGVSFFGGSLGNIAWYLQYAGKKSIGPDKVNQLRHLRFFGDADGVRLHMLRHQQILAPKFALVAEVLDQRLSESKIASWTEPKGGYFISLDVLPGTARRTVALAKDVGIAVTEAGASFPYRKDPDDKNIRIAPSFPSVPDLRNAVDGLATCALLAATETLLNQGLASSAPNVR
notes: also called AspAT
  binding result: binds
